Measurements: patent publication US20040091911, “Recombinant type II restriction endonucleases, MmeI and related endonucleases and methods for producing the same” (published 2004)

T1: MmeI (Methylophilus methylotrophus)
T1 chain: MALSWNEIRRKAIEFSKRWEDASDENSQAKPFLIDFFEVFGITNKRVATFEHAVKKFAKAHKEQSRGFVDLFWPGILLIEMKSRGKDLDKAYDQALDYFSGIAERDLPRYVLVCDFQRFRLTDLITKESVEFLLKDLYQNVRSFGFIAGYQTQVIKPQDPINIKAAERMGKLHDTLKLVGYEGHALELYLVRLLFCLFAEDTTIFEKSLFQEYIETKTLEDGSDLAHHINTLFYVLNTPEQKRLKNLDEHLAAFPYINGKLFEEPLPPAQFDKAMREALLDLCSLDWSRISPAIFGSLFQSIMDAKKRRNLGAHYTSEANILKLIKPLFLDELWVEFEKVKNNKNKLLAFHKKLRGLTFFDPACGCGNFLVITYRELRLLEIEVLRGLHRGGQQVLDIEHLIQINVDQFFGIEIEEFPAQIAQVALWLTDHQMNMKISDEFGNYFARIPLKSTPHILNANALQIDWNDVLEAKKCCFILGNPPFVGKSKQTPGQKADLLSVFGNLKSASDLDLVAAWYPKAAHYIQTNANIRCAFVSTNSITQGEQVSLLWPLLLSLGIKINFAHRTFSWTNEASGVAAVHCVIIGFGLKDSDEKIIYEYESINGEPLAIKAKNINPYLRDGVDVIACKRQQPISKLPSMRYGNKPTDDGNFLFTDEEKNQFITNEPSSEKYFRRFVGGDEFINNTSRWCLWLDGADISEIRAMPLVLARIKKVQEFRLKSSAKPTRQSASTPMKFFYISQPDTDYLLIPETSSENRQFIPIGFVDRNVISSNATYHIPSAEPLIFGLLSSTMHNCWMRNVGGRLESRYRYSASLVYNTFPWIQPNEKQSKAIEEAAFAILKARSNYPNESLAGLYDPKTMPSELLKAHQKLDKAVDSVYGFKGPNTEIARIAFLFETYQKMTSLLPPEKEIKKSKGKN


Legend:
MmeI [1] = molecular target: T1, MmeI; assay: methyltransferase activity; 3H-SAM incorporation; settings: preparation used with the oligos not specified; label: 5'-FAM both strands
MmeI [2] = molecular target: T1, MmeI; assay: methyltransferase activity on top strand; 3H-SAM incorporation; settings: preparation used with the oligos not specified; label: 5'-FAM both strands

Row | Binder | activity (MmeI [1]) [fold over background] | activity (MmeI [2]) [fold over background]
1 | oligo1+oligo2 unmethylated (dsDNA) DNA 1: GTTTGAAGACTCCGACGCGATGGCCAGCGATCGGCGCCTCAGCTTTTG DNA 2: CAAAAGCTGAGGCGCCGATCGCTGGCCATCGCGTCGGAGTCTTCAAAC | > 10 | –
2 | oligo1+oligo4 bottom methylated (dsDNA, 6mA in bottom strand at GTCGG(6mA) (position 38)) DNA 1: GTTTGAAGACTCCGACGCGATGGCCAGCGATCGGCGCCTCAGCTTTTG DNA 2: CAAAAGCTGAGGCGCCGATCGCTGGCCATCGCGTCGGAGTCTTCAAAC | – | > 10
